Experimental data published in patent US20030049605A1 (published 2003).

B1: gpIII/env1 phage (ecotropic Moloney MuLV envelope residues 34-468 displayed as a fusion with M13 gpIII) (other)
chain: ASPGSSPHQVYNITWEVTNGDRETVWATSGNHPLWTWWPDLTPDLCMLAHHGPSYWGLEYQSPFSSPPGPPCCSGGSSPGCSRDCEEPLTSLTPRCNTAWNRLKLDQTTHKSNEGFYVCPGPHRPRESKSCGGPDSFYCAYWGCETTGRAYWKPSSSWDFITVNNNLTSDQAVQVCKDNKWCNPLVIRFTDAGRRVTSWTTGHYWGLRLYVSGQDPGLTFGIRLRYQNLGPRVPIGPNPVLADQQPLSKPKPVKSPSVTKPPSGTPLSPTQLPPAGTENRLLNLVDGAYQALNLTSPDKTQECWLCLVAGPPYYEGVAVLGTYSNHTSAPANCSVASQHKLTLSEVTGQGLCIGAVPKTHQALCNTTQTSSRGSYYLVAPTGTMWACSTGLTPCISTTILNLTTDYCVLVELWPRVTYHSPSYVYGLFERSNRHKTSGGGGSPFVCEYQGQSSDLPQPPVNAGGGSGGGSGGGSEGGGSEGGGSEGGGSEGGGSGGGSGSGDFDYEKMANANKGAMTENADENALQSDAKGKLDSVATDYGAAIDGFIGDVSGLANGNGATGDFAGSNSQMAQVGDGDNSPLMNNFRQYLPSLPQSVECRPFVFSAGKPYEFSIDCDKINLFRGVFAFLLYVATFMYVFSTFANILRNKES
notes: Tested as whole phage particles displaying the fusion; also called construct 1
B2: gpIII/env2 phage (ecotropic Moloney MuLV envelope residues 34-308 displayed as a fusion with M13 gpIII) (other)
chain: ASPGSSPHQVYNITWEVTNGDRETVWATSGNHPLWTWWPDLTPDLCMLAHHGPSYWGLEYQSPFSSPPGPPCCSGGSSPGCSRDCEEPLTSLTPRCNTAWNRLKLDQTTHKSNEGFYVCPGPHRPRESKSCGGPDSFYCAYWGCETTGRAYWKPSSSWDFITVNNNLTSDQAVQVCKDNKWCNPLVIRFTDAGRRVTSWTTGHYWGLRLYVSGQDPGLTFGIRLRYQNLGPRVPIGPNPVLADQQPLSKPKPVKSPSVTKPPSGTPLSPTQLPPATSGGGGS
notes: range 34-308; Tested as whole phage particles. pelB leader left out; also called construct 2
B3: gpIII/env3 phage (ecotropic Moloney MuLV envelope residues 34-266 displayed as a fusion with M13 gpIII) (other)
chain: ASPGSSPHQVYNITWEVTNGDRETVWATSGNHPLWTWWPDLTPDLCMLAHHGPSYWGLEYQSPFSSPPGPPCCSGGSSPGCSRDCEEPLTSLTPRCNTAWNRLKLDQTTHKSNEGFYVCPGPHRPRESKSCGGPDSFYCAYWGCETTGRAYWKPSSSWDFITVNNNLTSDQAVQVCKDNKWCNPLVIRFTDAGRRVTSWTTGHYWGLRLYVSGQDPGLTFGIRLRYQNLGPRVTSGGGGS
notes: range 34-266; Tested as whole phage particles. pelB leader left out; also called construct 3

Target: T1, mCAT1, ecotropic retroviral receptor (cationic amino acid transporter), expressed on human 911 cells … (mouse, UniProt Q09143 1-622)
T1 construct: whole, on cells; also called mATRC1; 911-mCAT1-3H7
Assay: phage binding to cells, elution with triethylamine, titering (cfu)

T1 sequence (Q09143 whole entry): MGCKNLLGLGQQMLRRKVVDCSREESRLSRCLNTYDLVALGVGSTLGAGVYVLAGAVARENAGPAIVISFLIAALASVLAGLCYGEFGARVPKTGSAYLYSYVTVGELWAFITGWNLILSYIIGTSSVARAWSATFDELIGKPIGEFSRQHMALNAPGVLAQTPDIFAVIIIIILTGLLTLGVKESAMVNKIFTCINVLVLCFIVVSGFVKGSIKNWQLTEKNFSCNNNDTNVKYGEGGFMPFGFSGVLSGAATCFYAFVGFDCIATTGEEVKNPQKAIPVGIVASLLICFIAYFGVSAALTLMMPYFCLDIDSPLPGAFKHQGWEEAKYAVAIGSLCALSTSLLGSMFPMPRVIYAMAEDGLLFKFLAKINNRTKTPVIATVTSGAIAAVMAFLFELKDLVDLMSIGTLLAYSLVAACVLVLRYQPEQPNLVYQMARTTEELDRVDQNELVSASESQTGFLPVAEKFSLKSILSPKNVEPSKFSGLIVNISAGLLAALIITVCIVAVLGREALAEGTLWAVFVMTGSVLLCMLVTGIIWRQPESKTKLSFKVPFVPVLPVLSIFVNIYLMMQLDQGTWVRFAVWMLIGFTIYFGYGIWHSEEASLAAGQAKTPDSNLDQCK

| Binder | times more eluted phage from 911-mCAT1 cell line as compared to 911-pcDNA3 cell line [times] |
| --- | --- |
| B1 | 11 |
| B2 | 97 |
| B3 | 26 |
